In publication PMC5555194:
Values joined by “and” are separate entries in the source; they are usually repeats but may differ in a detail not shown here. Identical values can stand only once.

Biological target: C3b (human) (UniProt P01024)
Assay: SPR; C3b amine-coupled to a Biacore C1 chip; dilution series of CFH (from 2.5 to 0.019 uM), preincubated with or without a 2-fold molar excess of PspCN, flowed over; Biacore T200, 25 °C, 10 mM HEPES, 150 mM NaCl, 0.05% P20; 1:1 steady-state model; three experiments on different chips

C3b (human), sequence (P01024 23-667, chain 1 of 2): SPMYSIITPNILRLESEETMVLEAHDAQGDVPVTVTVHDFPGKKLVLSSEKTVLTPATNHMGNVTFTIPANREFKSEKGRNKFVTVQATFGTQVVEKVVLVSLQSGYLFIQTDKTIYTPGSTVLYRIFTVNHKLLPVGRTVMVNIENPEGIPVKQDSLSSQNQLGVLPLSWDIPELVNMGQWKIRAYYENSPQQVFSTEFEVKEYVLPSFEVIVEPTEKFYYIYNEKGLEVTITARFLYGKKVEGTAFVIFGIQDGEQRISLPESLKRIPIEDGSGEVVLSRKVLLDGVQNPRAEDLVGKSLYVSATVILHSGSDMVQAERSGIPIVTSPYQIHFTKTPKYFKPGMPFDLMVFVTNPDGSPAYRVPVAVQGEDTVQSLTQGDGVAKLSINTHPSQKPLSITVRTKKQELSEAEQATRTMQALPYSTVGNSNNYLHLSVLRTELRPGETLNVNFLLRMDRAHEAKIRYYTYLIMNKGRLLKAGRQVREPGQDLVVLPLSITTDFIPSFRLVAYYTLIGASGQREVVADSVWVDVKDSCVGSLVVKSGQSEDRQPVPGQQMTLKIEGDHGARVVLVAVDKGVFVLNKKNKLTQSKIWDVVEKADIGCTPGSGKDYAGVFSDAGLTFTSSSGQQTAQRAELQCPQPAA
C3b (human), sequence (P01024 749-1663, chain 2 of 2): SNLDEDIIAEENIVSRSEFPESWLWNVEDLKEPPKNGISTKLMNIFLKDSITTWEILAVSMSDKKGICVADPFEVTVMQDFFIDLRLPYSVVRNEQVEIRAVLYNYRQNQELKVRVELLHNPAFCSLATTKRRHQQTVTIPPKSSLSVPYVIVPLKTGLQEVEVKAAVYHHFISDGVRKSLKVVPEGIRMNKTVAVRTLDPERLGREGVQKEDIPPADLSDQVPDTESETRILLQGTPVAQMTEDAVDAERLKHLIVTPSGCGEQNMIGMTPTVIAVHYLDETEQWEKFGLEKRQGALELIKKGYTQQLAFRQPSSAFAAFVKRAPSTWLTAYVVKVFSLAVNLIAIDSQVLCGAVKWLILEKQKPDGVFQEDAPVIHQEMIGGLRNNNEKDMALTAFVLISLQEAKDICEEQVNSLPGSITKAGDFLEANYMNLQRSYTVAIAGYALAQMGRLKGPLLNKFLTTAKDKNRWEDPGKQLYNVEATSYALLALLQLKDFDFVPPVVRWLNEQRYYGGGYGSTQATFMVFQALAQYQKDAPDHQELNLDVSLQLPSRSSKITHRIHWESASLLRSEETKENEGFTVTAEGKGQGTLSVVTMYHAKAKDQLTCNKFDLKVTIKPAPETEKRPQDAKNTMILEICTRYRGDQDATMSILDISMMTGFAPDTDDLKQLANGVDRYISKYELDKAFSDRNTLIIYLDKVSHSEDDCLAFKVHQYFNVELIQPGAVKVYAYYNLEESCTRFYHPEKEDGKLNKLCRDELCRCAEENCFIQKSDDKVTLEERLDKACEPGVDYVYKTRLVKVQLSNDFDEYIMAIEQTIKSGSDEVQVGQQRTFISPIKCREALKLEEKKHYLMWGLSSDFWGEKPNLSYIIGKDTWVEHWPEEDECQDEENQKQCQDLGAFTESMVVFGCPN

Substance | Kd
CFH purified from human plasma (plasma CFH) (from UniProt P08603 19-1231) (natural protein) | 330 nM
I62-CFH–PspCN complex (from UniProt P08603 19-1231; Q9KK19 37-140) | 620 nM and 500 nM
LA-CFH–PspCN complex (from UniProt P08603 19-1231; Q9KK19 37-140) | 700 nM and 600 nM
R53H-CFH–PspCN complex (from UniProt P08603 19-1231; Q9KK19 37-140) | 1000 nM and 580 nM
